Assay results reported in the Immune Epitope Database (IEDB).

Legend:
HLA-B*40:02 = assay: IEDB peptide-MHC binding, purified MHC/competitive/radioactivity; filed as Kd, often an IC50 or EC50 that approximates it; ≥ and ≤ were set here for values at or beyond the usual limits of such assays
HLA-B*18:01 [1] = assay: as above
HLA-B*45:01 = assay: as above
HLA-B*44:02 = assay: as above
HLA-B*44:03 = assay: as above
HLA-B*40:01 = assay: as above
HLA-A*02:01 [2] = assay: as above
HLA-A*69:01 = assay: IEDB peptide-MHC binding, purified MHC/competitive/fluorescence; filed as Kd, often an IC50 or EC50 that approximates it; ≥ and ≤ were set here for values at or beyond the usual limits of such assays
HLA-A*02:06 = assay: IEDB peptide-MHC binding, purified MHC/competitive/radioactivity; filed as Kd, often an IC50 or EC50 that approximates it; ≥ and ≤ were set here for values at or beyond the usual limits of such assays; conditions: source organism: Dengue virus 2 Jamaica/1409/1983
HLA-B*51:01 [3] = assay: as above
HLA-A*01:01 = assay: as above; conditions: source organism: Dengue virus 1 Brazil/97-11/1997
HLA-B*15:17 = assay: IEDB peptide-MHC binding, purified MHC/competitive/fluorescence; filed as Kd, often an IC50 or EC50 that approximates it; ≥ and ≤ were set here for values at or beyond the usual limits of such assays; conditions: source organism: Homo sapiens
HLA-B*39:01 = assay: as above; conditions: source organism: Homo sapiens
HLA-B*18:01 [4] = assay: as above; conditions: source organism: Homo sapiens
HLA-B*51:01 [5] = assay: as above; conditions: source organism: Homo sapiens
HLA-A*26:01 = assay: as above; conditions: source organism: Homo sapiens
HLA-B*57:01 = assay: as above; conditions: source organism: Homo sapiens
HLA-B*46:01 = assay: as above; conditions: source organism: Homo sapiens
HLA-B*27:03 = assay: as above; conditions: source organism: Homo sapiens
HLA-A*02:01 [6] = assay: IEDB peptide-MHC binding, purified MHC/direct/fluorescence; filed as Kd, often an IC50 or EC50 that approximates it; ≥ and ≤ were set here for values at or beyond the usual limits of such assays; conditions: source organism: Homo sapiens
HLA-B*08:01 = assay: IEDB peptide-MHC binding, purified MHC/competitive/radioactivity; filed as Kd, often an IC50 or EC50 that approximates it; ≥ and ≤ were set here for values at or beyond the usual limits of such assays; conditions: source organism: Dengue virus 4 Philippines/H241/1956
[7] = source organism: Mammarenavirus lassaense
[8] = source organism: SARS coronavirus Tor2
[9] = source organism: Mammarenavirus brazilense

Sequence | Kd (HLA-B*40:02; [8]) [nM] | Kd (HLA-B*18:01 [1]; [8]) [nM] | Kd (HLA-B*45:01; [8]) [nM] | Kd (HLA-B*44:02; [8]) [nM] | Kd (HLA-B*44:03; [8]) [nM] | Kd (HLA-B*40:01; [8]) [nM] | also measured
FEKHILPFMS | – | – | – | – | – | – | Kd (HLA-B*40:02; [7]): 672 nM; Kd (HLA-B*18:01 [1]; [7]): ≥ 22900 nM; Kd (HLA-B*45:01; [7]): ≥ 22300 nM; Kd (HLA-B*44:02; [7]): ≥ 70200 nM; Kd (HLA-B*44:03; [7]): ≥ 70100 nM; Kd (HLA-B*40:01; [7]): ≥ 33500 nM
RELHLSWEVG | 198 | 1590 | 1280 | 8.3 | 42.7 | 829 | –
QLIPCMDVVL | – | – | – | – | – | – | Kd (HLA-A*02:01 [2]; source organism: Triticum aestivum): 384 nM
GDEALRGFL | – | – | – | – | – | – | Kd (HLA-B*40:02; [9]): 826 nM; Kd (HLA-B*18:01 [1]; [9]): ≥ 50900 nM; Kd (HLA-B*45:01; [9]): ≥ 43700 nM; Kd (HLA-B*44:02; [9]): ≥ 47000 nM; Kd (HLA-B*44:03; [9]): ≥ 36100 nM; Kd (HLA-B*40:01; [9]): 7010 nM
FDAWFSQRGG | ≥ 70800 | ≥ 70500 | 360 | 9750 | ≥ 32000 | ≥ 69600 | –
LVAGGLLTV | – | – | – | – | – | – | Kd (HLA-A*69:01; source organism: dengue virus type 2): ≥ 20000 nM; Kd (HLA-A*02:06): 3.95 nM
DESASKSASV | 1210 | 3780 | 2780 | 1970 | 887 | 10200 | –
IDFYLCFLAF | 16700 | 1560 | 117 | 97 | 88.1 | 839 | –
FTQTAGPWHL | – | – | – | – | – | – | Kd (HLA-B*51:01 [3]; source organism: Dengue virus 1 Brazil/97-11/1997): ≥ 36500 nM; Kd (HLA-A*01:01): ≥ 23500 nM
KEEILGTVSW | 266 | 468 | 2810 | 4.47 | 48.1 | 19500 | –
MEAQFLYLYA | 68.7 | 351 | 4.51 | 56.3 | 8.16 | 1430 | –
YSPALNKMF | – | – | – | – | – | – | Kd (HLA-B*15:17): 336 nM
REEAIRHVRA | 3330 | ≥ 70500 | 57.6 | 18800 | ≥ 45900 | 689 | –
QDPLLGTLS | – | – | – | – | – | – | Kd (HLA-B*40:02; [9]): 12600 nM; Kd (HLA-B*18:01 [1]; [9]): ≥ 77500 nM; Kd (HLA-B*45:01; [9]): ≥ 74300 nM; Kd (HLA-B*44:02; [9]): ≥ 77900 nM; Kd (HLA-B*44:03; [9]): ≥ 30400 nM; Kd (HLA-B*40:01; [9]): ≥ 46400 nM
KLVSLGVNAV | – | – | – | – | – | – | Kd (HLA-A*02:01 [2]; source organism: Hepatitis C virus subtype 1b): 344 nM
TLKDGDFIL | – | – | – | – | – | – | Kd (HLA-B*39:01): ≥ 20000 nM; Kd (HLA-A*69:01; source organism: Homo sapiens): ≥ 20000 nM; Kd (HLA-B*18:01 [4]): ≥ 20000 nM; Kd (HLA-B*51:01 [5]): ≥ 20000 nM; Kd (HLA-A*26:01): ≥ 20000 nM; Kd (HLA-B*57:01): ≥ 20000 nM; Kd (HLA-B*15:17): ≥ 20000 nM; Kd (HLA-B*46:01): ≥ 20000 nM; Kd (HLA-B*27:03): ≥ 20000 nM; Kd (HLA-A*02:01 [6]): ≤ 1 nM
VALLRTYCI | – | – | – | – | – | – | Kd (HLA-B*51:01 [3]; source organism: Dengue virus 4 Philippines/H241/1956): 392 nM; Kd (HLA-B*08:01): 35.5 nM
FELLNAPAT | 11.1 | 303 | 392 | 5790 | 6130 | 1170 | –
